Assay results published in patent publication US11739132B2, “Separation moieties and methods of use thereof” (Werewolf Therapeutics, Inc., priority 2019, dated 2023).

System: MC38 tumor cells
Assay: MC38 tumor model, IFNα and IL-12 fusion proteins (Example 27C)
Assay type: in vivo, C57BL/6 mice
Conditions: ACP31 33-330 μg, ACP11 17.5-525 μg, ACP04 2 and 10 μg
Method: The MC38 cell line, a rapidly growing colon adenocarcinoma cell line that expresses MMP9 in vitro, was used. Using this tumor model, the ability of fusion proteins to affect tumor growth was examined.
Mice were anaesthetized with isoflurane for implant of cells to reduce the ulcerations. 308 CR female C57BL/6 mice were set up with 5×10^5 MC38 tumor cells in 0% Matrigel sc in flank. Cell Injection Volume was 0.1 mL/mouse. Mouse age at start date was 8 to 12 weeks. Pair matches were performed when tumors reach an average size of 100-150 mm^3 and begin treatment. Body weights were taken at initiation and then biweekly to the end. Caliper measurements were taken biweekly to the end. Any adverse reactions were to be reported immediately. […] Within a group with >20% weight loss, individuals hitting the individual body weight loss endpoint were euthanized. If the group treatment related body weight loss is recovered to within 10% of the original weights, dosing resumed at a lower dose or less frequent dosing schedule. Exceptions to non-treatment body weight % recovery were allowed on a case-by-case basis. […] Animals were monitored individually. […]
No compounds in salt form were used. […] The amount needed per week was calculated, aliquoted accordingly, and stored at −20 C. […]
For ACP11, ACP31, ACP131, the amount needed per week was calculated, aliquoted accordingly, and stored at −20 C. […]

B1: ACP04: human p40-murine p35-6xHis (protein)
chain: IWELKKDVYVVELDWYPDAPGEMVVLTCDTPEEDGITWTLDQSSEVLGSGKTLTIQVKEFGDAGQYTCHKGGEVLSHSLLLLHKKEDGIWSTDILKDQKEPKNKTFLRCEAKNYSGRFTCWWLTTISTDLTFSVKSSRGSSDPQGVTCGAATLSAERVRGDNKEYEYSVECQEDSACPAAEESLPIEVMVDAVHKLKYENYTSSFFIRDIIKPDPPKNLQLKPLKNSRQVEVSWEYPDTWSTPHSYFSLTFCVQVQGKSKREKKDRVFTDKTSATVICRKNASISVRAQDRYYSSSWSEWASVPCSGGGGSGGGGSGGGGSRVIPVSGPARCLSQSRNLLKTTDDMVKTAREKLKHYSCTAEDIDHEDITRDQTSTLKTCLPLELHKNESCLATRETSSTTRGSCLPPQKTSLMMTLCLGSIYEDLKMYQTEFQAINAALQNHNHQQIILDKGMLVAIDELMQSLNHNGETLRQKPPVGEADPYRVKMKLCILLHAFSTRVVTINRVMGYLSSAHHHHHH
Tumor volume over time: tumor volume decreasing over time in a dose-dependent manner
